# Data as given in US20140289906A1, “Compositions Having Dicamba Decarboxylase Activity and Methods of Use” (priority 2013, published 2014).
# B1: 71 (protein, listed as Burkholderia dolosa)
# chain: MARAGHRAARTRQSRPGDRTMTCSCCMSAGRRRVLGAFAALAGAPKGPRAASAAQPAAASKPTRGDATARNRHSRALLPGKASASWSATKASGSGGAFAWDDTTFTFRTPAGGLGPLPMKFIDVDARLRDMDASGVDVQALSLSVPMAYWGDRPFNAKLARAWNTAASRVHVRAPDRFVVLATLPMLDATDAIDELERASELPGVRGVYMGTNIDNRDLDDPRFAPVFARIEQLGLPVFLHPQQTVGGARLGDFYLSNLLGNPFDTAIAASHLILGGVLDRHPALHFTLPHAGGALPILVGRLDAGWTVRAETRRLAHQPSGYLRRFSYDTVSHSGPVLNFLIENVGIDRLVLGSDYCFDMGYEQPVRFLDRLDLTPDERAMVIGGNAGRLLRI
# B2: 76 (protein, listed as Polymorphum gilvum)
# chain: MAKKIDIFNHIWPEPFFKALIAHIGEMTDITMRSGAVPMMTNLDRRFEVMDMFGPDYMQVLSLASPPLEKLADPAKALELSRIGSDSLAELCQRYPERFPAFIGTAPLSNPAAVVGECRRAIEDLGAAGMQIFTNVAGKPLDLAEFEPFFEYMASAGKPVWLHPARGEAFADYQTEKRSEYEIWWTFGWPYETSAAMARLVFSRMFDKYPGLKVITHHAGGMVPFFEGRVGPGWDQMGARTTDRDLAAVRKALKRPHLDYFKEFYADTASFGSRKAIEHAIEFFGEDRVLFASDAPFDPEGGPMYIRETMRCIDSLDLTDAQRRKIYHGNATALLGLSL
# B3: 6 (protein)
# chain: MAEILSPEESIYYSKLSNDILAEGIKKNPTRFRGFAALPTPDPIQAAMELERCIKLGGFVGAIINGHINGHYLDEIQFDPILEAADALDVPLYIHPAVPPKAIIDTYYKMNDTYAQTVMVSGGWGWHIETGVHVLRLISSGVFDRHPNLKIVIGHLGEGLPFFMHRLNNAIGGNLKKSYSTYLKENIYYTISGFNDPDLFQFVLKKVGENNIMFSSDYPFNFPKREVELFNELNISEEVREKISFKNAERILKI
# modifications: Treponema brennaborense
# B4: 74 (protein, listed as Ramlibacter tataouinensis)
# chain: MATVIDVHTHMFTTKWLELLKKEGGQYNIQTRPDGQQEIFRGNTPVVIPQKGHFDWKLRIQHMDQAGIDVSVVSLTCPNVYWGGEDVSVRAAREANDNVAQAQTAYPDRIRWFASLPWEYMATVIDVHTHMFTTKWLELLKKEGGQYNIQTRPDGQQEIFRGNTPVVIPQKGHFDWKLRIQHMDQAGIDVSVVSLTCPNVYWGGEDVSVRAAREANDNVAQAQTAYPDRIRWFASLPWEYPQRAVEELERSCAQGAAGVMVLANVAGRSLTDPLFAPVWAEIDRRALPVLVHPTDPPGVDLMDMTKFDLSWSVGFMFDTTLAITRMIFEGFFDRYPNLRIIASHGGGTLPYLVGRFEKGDEVELASRRQMKRKPTDYLRHIHYDCITYNLGALQYLISVVGAGQVMFGTDWPHWVHDTRGAFANTAQLPQEQTRAVRGANAQRLFKL
# B5: 72 (protein)
# chain: MADCPCCVSPKRRRLLGSVSAIAAGMMAGLPALAAQPSTAAAGTGKPLSIDIHAHYYSESFLGLLGGEGKQFGGHFFRNDDSFTFQTPAGGLGPLPMKFIDVEQRVRDMDNSGVDVQAISLSVPMVYWADRTLNAKLARAWNTAASDVHRKHPTRFVVLATLPMLNANDAIDELEFAAGLPGVRGIYMGTNINNRDLDDPLFSPIFKRIEQLNLPIFLHPQQTVGGARLADFYLSNLLGNPFDTAIAASHLILGGVLDKYPALHFSLPHAGGALPILVGRIDAGWSMRSETKRVAQKPSSYLRRFSYDTISHSGPTLDFLIRNIGADRLVLGSDYCFDMGYEQPVRFLDRLALPDDQKRMVVGGNAARLLNL
# modifications: Cupriavidus necator
# B6: 75 (protein, listed as Ectocarpus siliculosus)
# chain: MAKIDSYTHFACPAFMDHLEAESGHPMVFRGLFSSIPELSDIDLRIRYMDEHGIDVHCLVPLPWLECEPGLHADEGKALEACRIANDEMARVVARFPDRLIGVALIPTTTEQAMIQETTRAVKELGMAGVALFVGPTAKPPDMACFEGLYRTCEELGAVVWMHPCRPQSYADYDSYKGEGSKHQIWNTFGWIYDTSVAMVHIALAGVFRRYPGLKVVTHHHGAMVPFFTARFDTQRRNFQEVEGDDLLEDLRLFYCDTATFGESAANIQQAIDFFGKSQVLFGTDTPMDMGTRGMFTRTTIASVEALGAAPEDKESFYAGNVLDMLGERFAGISGARGAVAARPKGDSTRIAASL
# B7: 73 (protein, listed as Sphaerobacter thermophilus)
# chain: MARIDAHAHAQPPEYLDALLASGRYESVRDAEGRIVVRERGSRFLTITPQMHHPEQRVAEMDEAGIDMQILSVTTPQVYFLQGQAAVDLARRCNDYLADIVRSYPTRFRALASVPLTADPDAAVREFVRCLDDLGMVGAIIGSNIDGRPIDDPAFDAFYAEADRRATTLFIHPMVPAGIEVMNPYALAPLVGFMFDTTLAVSRLIFSGFFERYPRVKVLVGHLGAAVPYLAGRLDIGWRSYSDCQGIPHPPTEYIRRLYLDTVSFHAPALRCALETVGPDRIVFGSDYPHVIGDVGGAIASIQQALPATTHDGVLGHTAAELFGVSA
# B8: 78 (protein, listed as Marinobacter adhaerens)
# chain: MALIDLHAHAPHPDYYDQHPHWGPAFELQSDGDIKLRVGHWVLSLGAPERKQALREAHARGETLDVQEYMAKWRDPEHRLASMDAAGQNAQVLSVPSHCYMYWAEPEFGVPFAKKVNDSLAEYCSAAPDRLMFWAHAPLNVPKEAAKEIRRACTELGAKGLVAGGSNFGGLEFDSPEMDPVWEALCDLDLPMFVHGYNQSVTWGEEANTDRYETTAIVGMNYDESKCFWYMINGGVFDRFPNLKVYITHGGGFVPYQLGRMAQTNPNLDTYHNKKPFLEYLKNFYFDVELHEVPMRQAMVEVIGADRVLYGSNFGGSDAVRHDLTDDLKLSQEDLDKIRWKNACDLLHLDPNKLGKVRG
# B9: 77 (protein)
# chain: MALIDLHAHAPHPGYYNQHPHWGPFFERHEDGDVKLRVGDWILTLGSPERKALVRAGKGPTVEEYQARWADPKVRLAGMDAAGQNAQVVSVPSHCYMYWAEKEFSVPFATKVNDTFAEYCSAAPDRLMFWAHAALNAPEQAALELRRACTELGAKGLVAGGANFGGLEFDSPELDPVWKVLCDLDLPMFIHGYNQSVTWGKKANDDRYETTAIVGMQYDETRCFWNLVCGGVLDRFPGLKVYITHGGGYVPYQLGRLAQCNGNLDVAHNKKPVLEYLKNNFYFDVELHEVPMRQALIDIIGADRVLYGSNFGGSDAVRHDLTEGLRLSDDDLQKIRWKNACKLLHLDPAKIGEPAKKQAVSA
# modifications: Burkholderia xenovorans
# B10: 80 (protein, listed as Cordyceps militaris)
# chain: MAAASTPVVVDIHTHMYPPSYIAMLEKRQTIPLVRTFPQADEPRLILLSSELAALDAALADPAAKLPGRPLSTHFASLAQKMHFMDTNGIRVSVISLANPWFDFLAPDEAPGIADAVNAEFSDMCAQHVGRLFFFAALPLSAPVDAVKASIERVKNLKYCRGIILGTSGLGKGLDDPHLLPVFEAVADAKLLVFLHPHYGLPNEVYGPRSEEYGHVLPLALGFPMETTIAVARMYMAGVFDHVRNLQMLLAHSGGTLPFLAGRIESCIVHDGHLVKTGKVPKDRRTIWTVLKEQIYLDAVIYSEVGLQAAIASSGADRLMFGTDHPFFPPIEEDVQGPWDSSRLNAQAVIKAVGEGSSDAAAVMGLNAVRVLSLKAE
# Test: 14C assay: 14CO2 capture from [14C]-carboxyl-labeled dicamba with IPTG-induced recombinant E. coli cells
# Details: for Dicamba Decarboxylase Activity: IPTG-induced recombinant E. coli cells, 14CO2 from [14C]-carboxyl-labeled dicamba; for Enzymatic Detection level: dicamba decarboxylation activity
Molecule,Dicamba Decarboxylase Activity,Enzymatic Detection level
B1,Low,Low
B2,No,No
B3,No,No
B4,Low,Low
B5,Low,Low
B6,Low,Low
B7,Low,Low
B8,Low,Low
B9,No,No
B10,Low,Low
